Results reported in US20240277803A1, “NME INHIBITORS AND METHODS OF USING NME INHIBITORS” (Minerva Biotechnologies Corporation, priority 2013, published 2024).

Legend:
A panel of cancer cells = assay: PCR of stem and cancer stem cell markers in cancer cells cultured in NME proteins; format: cell-based; settings: cell type not given
Method: Another function that NME1 and NME7 have is the ability to transform cancer cells to the more metastatic cancer stem cell state, also called tumor initiating cells. A panel of cancer cells were cultured in a serum-free minimal base media with human NME7-AB or human NME1 dimers (‘NM23’ in figures) as the only growth factor or cytokine. After several days in this media, cells began to float off the surface and continued to grow in solution. The ‘floaters’ were collected and separately analyzed by PCR. Cells in other wells were treated with a rho kinase inhibitor (‘Ri in figures’). Quantitative PCR measurements show an increase of the cancer stem cell markers, some of which used to be thought of as stem cell markers only (Miki J et al 2007, Jeter C R et al 2011, Hong X et al 2012Faber A et al 2013, Mukherjee D et al 2013, Herreros-Villanueva M et al, 2013, Sefah K et al, 2013; Su H-T et al 2013). […] We observed a more modest, but trending, increase in markers of cancer stem cells and metastasis even in cells that were MUC1-negative (FIG. 47). We therefore conclude that NME7 likely is able to enter these cells by a route other than MUC1* wherein it can still act as a transcription factor and affect the expression levels of these genes. […] However, many cancers mutate NME1 so that it resists the formation of the self-replication limiting hexamer. Unlike NME1, NME7 is always active.
Standard methods were used to perform RT-PCR. The primers used are listed below: RNA was isolated using the Trizol® Reagent (Invitrogen) and cDNA was reverse transcribed with Random Hexamers (Invitrogren) using Super Script II (Invitrogen) and subsequently assayed for the genes FOXA2, XIST, KLF2, KLF4, NANOG and OCT4, using Applied Biosystems gene expression assays (OCT4 P/N Hs00999634_gH, Nanog P/N Hs02387400_g1, KLF2 P/N Hs00360439_g1, KLF4 P/N Hs00358836_m1, FOXa2 P/N Hs00232764_m1, OTX2 P/N Hs00222238_m1, LHX2 P/N Hs00180351_m1, XIST P/N Hs01079824 ml and GAPDH P/N 4310884E), on an Applied Biosystems 7500 real-time instrument. Each sample was run in triplicate. Gene expression was normalized to GAPDH. Data are expressed as a fold change relative to control.

[1] = biological target: T1, MUC1* extra cellular domain peptides (Homo sapiens, UniProt P15941); assay: ELISA sandwich assay, NME7-AB dimerizes MUC1* peptide (FIG. 8); format: binding
T1 sequence (P15941 1110-1154): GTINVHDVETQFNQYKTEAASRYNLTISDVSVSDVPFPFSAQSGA
From the text: We made several constructs for expression of a human NME7. One of these constructs expressed well in E. coli, was secreted in soluble form as a monomer and functioned approximately as NME1 dimers did for promoting stem cell growth, pluripotency and inhibition of differentiation. In this construct, the leader sequence “DM10” was omitted from the sequence. This generated a species that was approximately the same molecular weight, 33 kDa, as the secreted form of the protein. The protein was made as a Histidine tagged protein and first purified over an NTA-Ni column, then by FPLC with greater than 98% purity. We call this form of NME7, NME7-AB. […]
The PSMGFR peptide bearing a C-terminal Cysteine (PSMGFR-Cys) was covalently coupled to BSA using Imject Maleimide activated BSA kit (Thermo Fisher). […] After 1h at RT the plate was washed 3× with PBS-T and binding of NME7 was measured at 415 nm using a ABTS solution (Pierce). […]
After 1h at RT the plate was washed 3× with PBS-T and HisTagged PSMGFR peptide (PSMGFR-His) or biotinylated PSMGFR peptide (PSMGFR-biotin), diluted in PBS-T+1% BSA, was added at different concentration. […] After 1h at RT the plate was washed 3× with PBS-T and binding of PSMGFR peptide to NME7 already bound to another PSMGFR peptide (which could not signal by anti-His antibody or by streptavidin) coupled BSA was measured at 415 nm using a ABTS solution (Pierce).

B1: NME7-AB: recombinant human NME7 of NDPK A and B domains without the DM10 leader sequence, ~33 kDa (SEQ ID NO:39) (protein, listed as Homo sapiens)
chain: MEKTLALIKPDAISKAGEIIEIINKAGFTITKLKMMMLSRKEALDFHVDHQSRPFFNELIQFITTGPIIAMEILRDDAICEWKRLLGPANSGVARTDASESIRALFGTDGIRNAAHGPDSFASAAREMELFFPSSGGCGPANTAKFTNCTCCIVKPHAVSEGLLGKILMAIRDAGFEISAMQMFNMDRVNVEEFYEVYKGVVTEYHDMVTEMYSGPCVAMEIQQNNATKTFREFCGPADPEIARHLRPGTLRAIFGKTKIQNAVHCTDLPEDGLLEVQYFFKILDN
modifications: Human NME7-AB
- up-regulation of KLF4 (A panel of cancer cells): 4 X
- up-regulation of MUC1 (A panel of cancer cells): 10 X
- up-regulation of NANOG (A panel of cancer cells): ~10 X
- up-regulation of OCT4 (A panel of cancer cells): ~50 X
- up-regulation of SOX2 (A panel of cancer cells): > 150 X
- up-regulation of cancer stem cell marker CXCR4 (A panel of cancer cells): ~200 X
- up-regulation of cancer stem cell marker E-cadherin (CDH1) (A panel of cancer cells): up-regulates
- simultaneous binding of two MUC1* extra cellular domain peptides (ELISA) [1]: can simultaneously bind two MUC1* extra cellular domain peptides
